Measurements published in patent publication US20210403579A1 (DELINIA, published 2021).

T1: Human ST2 (human, UniProt Q01638 19-328, limits assumed)
T1 construct: also called human ST2 protein; Interleukin 1 receptor-like 1
T1 sequence (looked up): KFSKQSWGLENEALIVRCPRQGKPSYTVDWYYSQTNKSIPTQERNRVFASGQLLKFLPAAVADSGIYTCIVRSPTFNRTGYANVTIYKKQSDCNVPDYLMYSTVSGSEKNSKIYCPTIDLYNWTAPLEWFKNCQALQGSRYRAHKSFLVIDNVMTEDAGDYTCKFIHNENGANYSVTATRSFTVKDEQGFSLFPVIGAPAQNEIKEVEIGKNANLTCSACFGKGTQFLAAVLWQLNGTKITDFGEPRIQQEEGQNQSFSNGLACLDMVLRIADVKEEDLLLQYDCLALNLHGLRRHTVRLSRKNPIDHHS

T2: Mouse ST2 (mouse, UniProt P14719 27-332, limits assumed)
T2 construct: also called mouse ST2 protein
T2 sequence (looked up): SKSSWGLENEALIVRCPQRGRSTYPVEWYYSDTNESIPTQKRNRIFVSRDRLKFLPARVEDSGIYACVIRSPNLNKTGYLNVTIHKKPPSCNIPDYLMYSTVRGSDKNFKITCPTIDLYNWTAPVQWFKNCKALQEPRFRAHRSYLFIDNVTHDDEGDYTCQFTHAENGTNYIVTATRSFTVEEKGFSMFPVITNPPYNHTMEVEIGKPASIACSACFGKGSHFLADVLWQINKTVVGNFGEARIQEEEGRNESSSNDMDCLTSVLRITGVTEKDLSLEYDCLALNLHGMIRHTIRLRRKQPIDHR


Legend:
Human ST2 = biological target: T1, Human ST2; assay: SPR (Carterra), antibody immobilized, ST2 analyte, 1:1
Procedure: (§1) Binding of the reformatted human ST2 antibodies to the human and mouse ST2 proteins was evaluated by surface plasmon resonance (SPR), using a high throughput antibody screening and characterization platform from Carterra (Salt Lake City, Utah).

Mouse ST2 = biological target: T2, Mouse ST2; assay: as above
Procedure: as §1

| Binder | Kd (Human ST2) [nM] | koff (Human ST2) [s⁻¹] | kon (Human ST2) [M⁻¹ s⁻¹] | Kd (Mouse ST2) [nM] | koff (Mouse ST2) [s⁻¹] | kon (Mouse ST2) [M⁻¹ s⁻¹] |
| --- | --- | --- | --- | --- | --- | --- |
| Human ST2 IgG1 Antibody 103 (antibody, V domains shown, IgG1, kappa; also called ST2 Antibody 103) VH: QVQLVQSGAEVKKPGASVKVSCKASGYTFTSYYMHWVRQAPGQGLEWMGWMNPNSGNTGYAQKFQGRVTMTRDTSTSTVYMELSSLRSEDTAVYYCARETSFDYYYGMDVWGQGTTVTVSS VL: DIQMTQSPSSLSASVGDRVTITCRASQSISNWLAWYQQKPGKAPKLLIYDGSNLGTGVPSRFSGSGSGTDFTLTISSLQPEDFATYYCLQDFTYPLTFGGGTKVEIKR | 140 | 0.0063 | 45000 | 211 | 0.0058 | 27000 |
| Human ST2 IgG1 Antibody 104 (antibody, V domains shown, IgG1, kappa) VH: QVQLVQSGAEVKKPGSSVKVSCKASGYTFTNYAIIWVRQAPGQGLEWMGGIIPVFGTADYTQTFQGRVTITADESTSTAYMELSSLRSEDTAVYYCARVSTNYYDSSGYYAFDYWGQGTLVTVSS VL: DIQMTQSPSSLSASVGDRVTITCRASQSISSYLNWYQQKPGKAPKLLIYDASSLQSGVPSRFSGSGSGTDFTLTISSLQPEDFATYYCQQTYHTPWTFGQGTKVEIKR | 121 | 0.061 | 510000 | 684 | 0.096 | 140000 |
| Human ST2 IgG1 Antibody 105 (antibody, V domains shown, IgG1, kappa) VH: EVQLLESGGGLVQPGGSLRLSCAASGFTFSSYAMHWVRQAPGKGLEWVAVMSYDGRHEYYADSVKGRFTISRDNSKNTLYLQMNSLRAEDTAVYYCASTDYDIGGYSLPLDYWGQGTLVTVSS VL: DIQMTQSPSSLSASVGDRVTITCRASQSVSSWLAWYQQKPGKAPKLLIYAASNLQSGVPSRFSGSGSGTDFTLTISSLQPEDFATYYCQQSYDVPWTFGQGTRLEIKR | 256 | 0.095 | 370000 | 172 | 0.07 | 410000 |
| Human ST2 IgG1 Antibody 106 (antibody, V domains shown, IgG1, kappa) VH: QVQLVQSGAEVKKPGSSVKVSCKASGYTFTDYYIHWVRQAPGQGLEWMGGIIPIYGTANYAQKFQGRVTITADESTSTAYMELSSLRSEDTAVYYCARTNWGMDVWGQGTTVTVSS VL: EIVMTQSPATLSVSPGERATLSCRASQGIPSNSLAWYQQKPGQAPRLLIYGTSARASGIPARFSGSGSGTEFTLTISSLQSEDFAVYYCQQYYSTPWTFGQGTKVEIKR | 616 | 0.15 | 240000 | – | – | – |
| Human ST2 IgG1 Antibody 107 (antibody, V domains shown, IgG1, kappa) VH: QVQLVQSGAQVKKPGASVKVSCKASGGTFSSYTISWVRQAPGQGLEWMGVIYPSGDITVYAQEFQGRVTMTRDTSTSTVYMELSSLRSEDTAVYYCARAWARYFDYWGQGTLVTVSS VL: DIQMTQSPSSLSASVGDRVTITCQASQDISNYLNWYQQKPGKAPKLLIYDASNLQAGVPSRFSGSGSGTDFTLTISSLQPEDFATYYCQQSYSSPITFGQGTRLEIKR | 465 | 0.062 | 130000 | – | – | – |
| Human ST2 IgG1 Antibody 108 (antibody, V domains shown, IgG1, kappa; also called ST2 Antibody 108) VH: QVQLVQSGAEVKKPGASVKVSCKASGNTFTAYYMHWVRQAPGQGLEWMGIINPSGGSTSYAQKFQGRVTMTRDTSTSTVYMELSSLRSEDTAVYYCARGVGATNYWGQGTLVTVSS VL: DIQMTQSPSSLSASVGDRVTITCRASQGISNNLNWYQQKPGKAPKLLIYAASSLQSGVPSRFSGSGSGTDFTLTISSLQPEDFATYYCQQGFNFPLTFGGGTKVEIKR | 28 | 0.0056 | 200000 | – | – | – |
| Human ST2 IgG1 Antibody 109 (antibody, V domains shown, IgG1, kappa) VH: QVQLVQSGAEVKKPGSSVKVSCKASGYRFTDYYIHWVRQAPGQGLEWMGIIQPTGGGTTYAQKFQGRVTITADESTSTAYMELSSLRSEDTAVYYCARVGATVTKNYYYYYGMDVWGQGTTVTVSS VL: not shown | 10 | 0.0061 | 600000 | 1.1 | 0.0013 | 1.1e+06 |
